Results taken from US20250249113.

Tests used:
[1] = tested on: Compound 12: DM1-Mcc-Cit-Lys(PEG5-Ma-Cys-Ac)-Tyr-OH
[2] = tested on: Compound 5: DM1-Mal-Phe-Lys-Lys(PEG4-Mal-Cys-Ac)-Phe-OH
[3] = tested on: Compound 8: AF-Cit-Lys(PEG4-Mal-Cys-Ac)-Phe-OH
[4] = tested on: Compound 1: AF-Arg-Lys(PEG4-Mal-Cys-Ac)-Phe-OH
[5] = tested on: Compound 7: DM1-Mal-Phe-Cit-Phe-Lys(PEG4-Mal-Cys-Ac)-OH
[6] = tested on: Compound 6: DM1-Mal-Phe-Cit-Lys(PEG4-Mal-Cys-Ac)-Phe-OH
[7] = tested on: Compound 3: AF-Arg-Phe-Lys(PEG4-Mal-Cys-Ac)-OH
[8] = tested on: Compound 11: DM1-Mcc-Phe-Cit-Lys(PEG5-Ma-Cys-Ac)-Tyr-OH

What does the source list for recombinant human Cathepsin B?
Ratio (T1/2 Compound/T1/2 Reference), Cat B-induced cleavage [1]: 4e-05; T1/2 Compound (min), Cat B-induced cleavage [1]: 0.0004 min; T1/2 of cleavage by exo-Cat B [1]: compounds 11 and 12 are spontaneously cleaved by exo-Cat B (T1/2≤1 min); Ratio (T1/2 Compound/T1/2 Reference), Cat B-induced cleavage [2]: 0.05; T1/2 Compound (min), Cat B-induced cleavage [2]: 0.6 min; Ratio (T1/2 Compound/T1/2 Reference), Cat B-induced cleavage [3]: 0.09; T1/2 Compound (min), Cat B-induced cleavage [3]: 1.1 min; Ratio (T1/2 Compound/T1/2 Reference), Cat B-induced cleavage [4]: 0.12; T1/2 Compound (min), Cat B-induced cleavage [4]: 1.5 min; Ratio (T1/2 Compound/T1/2 Reference), Cat B-induced cleavage [5]: 0.09; T1/2 Compound (min), Cat B-induced cleavage [5]: 1.2 min; Ratio (T1/2 Compound/T1/2 Reference), Cat B-induced cleavage [6]: 0.02; T1/2 Compound (min), Cat B-induced cleavage [6]: 0.3 min; Ratio (T1/2 Compound/T1/2 Reference), Cat B-induced cleavage [7]: 0.11; T1/2 Compound (min), Cat B-induced cleavage [7]: 1.4 min; Ratio (T1/2 Compound/T1/2 Reference), Cat B-induced cleavage [8]: 0.005; T1/2 Compound (min), Cat B-induced cleavage [8]: 0.06 min; T1/2 of cleavage by exo-Cat B [8]: compounds 11 and 12 are spontaneously cleaved by exo-Cat B (T1/2≤1 min)
